Source: patent US20150359847A1, “METHOD AND COMPOSITION FOR CONFERRING NEUROPROTECTION” (BLOOD SYSTEMS RESEARCH INSTITUTE, priority 2014, published 2015)

What was measured:
SH-SY5Y cells = test: Hypoxia and MTT assay; format: cell-based, human; details: 5 hrs hypoxia + 18 hrs recovery; 1 hr pre-treatment with 1 ng/ml TIMP3
Description: MTT Cell Viability & Proliferation Assay™ was purchased from ScienCell, (Cat#8028. Carlsbad, Calif.) and performed with modifications. In brief, 2×10^5 SH-SY5Y cells were plated per well of a 12 well plate and differentiated for 2 days. Pre-treatments were conducted 1 hr prior to initiation of hypoxia. Control cells underwent media exchange. For hypoxia, cultures were placed in a hypoxia incubator chamber (Cat#27310. StemCell technologies, Vancouver, BC) and purged of regular air using nitrogen gas for 5 mins at a flow rate of 20 L/min, after which both inlet and outlet values were closed and the chamber was placed inside a regular tissue culture incubator. The chamber was re-gassed after one hour again for 5 mins at a flow rate of 20 L/min. After the hypoxia period, tissue culture plates were removed from the chamber and placed back into a regular tissue culture incubator for 18 hrs. At the time of assay 50 μl of MTT Solution was added to each well and incubated for 1 hr at 37° C. After incubation, add 250 μl of MTT solubilization buffer was added and […] of each test sample was transferred to a well of a 96 well plate. The absorbance was then read using a Polarstar plate reader (BMG Labtech, Cary, N.C.) at a wavelength at 570 nm. Background subtraction was carried out with values from an average of 4 wells of solubilization buffer alone.

[1] = tested on: S6 Ribosomal Protein (S235/236) in primary hippocampal neurons; test: S6 Ribosomal Protein (S235/236) phosphorylation in primary hippocampal neurons; format: cell-based, mouse; details: 1 μg/ml TIMP3, 15 mins
Description: SH-SY5Y cells were obtained from ATCC (Cat# CRL-2266, Manassas, Va.) and were cultured in DMEM and 10% FBS up to passage 10. For differentiation of SH-SY5Y cells into a neuronal phenotype, cells were first plated in DMEEM+10% FBS for 24 hrs before exchanging media in DMEM+1% FBS 10 μM retinoic acid. Differentiation was performed for 3 days before experimentation. Hippocampal neurons were prepared according to the protocol by Beaudoin et al. (Nature Protocols 2012; 7(9):1741-1754) with minor modifications. In brief, after trypsin digestion of hippocampi isolated from P1 mouse pups single cell suspensions was created by trituration and plated onto Biocoat™ poly-D-lysine coated 12-well plates (Cat#354470, BD Biosciences, San Jose, Calif.). […]
Pathscan Antibody™ array kits were purchased from Cell Signaling Technologies (Danvers, Mass.). PathScan® RTK signaling antibody array kit (Fluorescent Readout, Cat#7949) and PathScan™ Akt signaling antibody array kit (Fluorescent Readout, Cat#9700) were performed as per manufacturer's instructions. Imaging was performed on a LI-COR Odyssey™ infrared scanner and pixel densities measured by in house LI-COR Image™ suite software. […]
Lysates was analyzed in conjuncture with the LI-COR Odyssey™ infra-red imaging system. […] After further wash steps images were obtained using a LI-COR™ Odyssey scanner and quantified using LI-COR™ Image Studio software. […]

[2] = tested on: phospho-AKT(Ser473) in SH-SY5Y cells; test: Akt (Ser473) phosphorylation in differentiated SH-SY5Y cells (antibody array, western blot, Phosflow); format: cell-based, human
Description: SH-SY5Y cells were obtained from ATCC (Cat# CRL-2266, Manassas, Va.) and were cultured in DMEM and 10% FBS up to passage 10. For differentiation of SH-SY5Y cells into a neuronal phenotype, cells were first plated in DMEEM+10% FBS for 24 hrs before exchanging media in DMEM+1% FBS 10 μM retinoic acid. Differentiation was performed for 3 days before experimentation. Hippocampal neurons were prepared according to the protocol by Beaudoin et al. (Nature Protocols 2012; 7(9):1741-1754) with minor modifications. In brief, after trypsin digestion of hippocampi isolated from P1 mouse pups single cell suspensions was created by trituration and plated onto Biocoat™ poly-D-lysine coated 12-well plates (Cat#354470, BD Biosciences, San Jose, Calif.). 2 pups were used per well and cell suspensions were incubated for 10 minutes per well for a total of 6 wells. The serial incubation allowed for variation in cell densities applicable to different experiments but also contributed to the reduction in non-neuronal cells. Typically wells 1-2 were pooled for western blotting and wells 4-5 were used for imaging following treatments. After the initial plating cells were incubated for 2 hrs before media was completely exchanged for maintenance media that was supplemented with 1 μM of the anti-mitotic cytosine arabinoside in order to further reduce non-neuronal cells. For western blot, cells were cultured for 7 days before experimentation. Half of maintenance media was exchanged on day 2 and day 5. For morphology experiments, treatments were initiated upon the introduction of maintenance media and was renewed 48 hrs later for a further 24 hrs of treatment. Experiments were terminated by fixation for 20 minutes with 4% paraformaldehyde after which cells were stored at 4° C. in PBS prior to staining protocols.
Pathscan Antibody™ array kits were purchased from Cell Signaling Technologies (Danvers, Mass.). PathScan® RTK signaling antibody array kit (Fluorescent Readout, Cat#7949) and PathScan™ Akt signaling antibody array kit (Fluorescent Readout, Cat#9700) were performed as per manufacturer's instructions. Imaging was performed on a LI-COR Odyssey™ infrared scanner and pixel densities measured by in house LI-COR Image™ suite software.
After experimentation, SH-SY5Y cells were detached from culture ware via trypsin digestion and rapidly mixed with an equal volume of BD cytofix fixation buffer (Cat#554655. BD Biosciences, San Jose, Calif.). After wash steps with PBS cells were permeabilized with BD phosflow Perm Buffer III (Cat#558050. BD Biosciences, San Jose, Calif.) and incubated on ice for 30 mins. After washing in BD stain buffer (Cat#554657. BD Biosciences, San Jose, Calif.) cells were counted and 1×10^6 cells were used antibody incubation. Negative IgG compensation control was obtained using ABC control beads (Cat# A10344. Life Technologies, Grand Island, N.Y.). Antibody incubations were conducted for 30 mins at RT in the dark. Following wash steps the volume was adjusted to 500 μl and results obtained using and LSR II flow cytometer and analyzed using Flowjo™ cytometric analytical software version 8.8.7.
Cell lysates for western blotting were prepared with RIPA buffer (Cat#89900. Thermofisher Scientific, Rockford, Ill.) supplemented with phosphatase inhibitor cocktail 2 (Cat# P5726. Sigma, St Louis, Mo.), phosphatase inhibitor cocktail 3 (Cat# P0044. Sigma, St Louis, Mo.) and complete protease inhibitor (Cat#1862209. Thermofisher Scientific, Rockford, Ill.). Complete homogenization was ensured by brief sonication using a Branson Sonifier 150, (Branson Ultrasonics Corporation, Danbury, Conn.). Protein content was quantified with a Pierce BCA protein assay kit per manufacturer's instructions (Cat#23225. Thermofisher Scientific, Rockford, Ill.).
Lysates was analyzed in conjuncture with the LI-COR Odyssey™ infra-red imaging system. […]

B1: TIMP3: Recombinant tissue inhibitor of matrix metalloproteinase-3, a soluble protein released by MSCs, obtained from Amgen Inc. (protein)
chain: CTCSPSHPQDAFCNSDIVIRAKVVGKKLVKEGPFGTLVYTIKQMKMYRGFTKMPHVQYIHTEASESLCGLKLEVNKYQYLLTGRVYDGKMYTGLCNFVERWDQLTLSQRKGLNYRYHLGCNCKIKSCYYLPCFVTSKNECLWTDMLSNFGYPGYQSKHYACIRQKGGYCSWYRGWAPPDKSIINATDP
For B1, the “SH-SY5Y cell viability by MTT after hypoxia” value (SH-SY5Y cells) was “prevents loss of cell viability”, the “S6 Ribosomal Protein (S235/236) activation, western blot” value [1] was “activates S6 Ribosomal Protein (S^235/236)” and the “S6 Ribosomal Protein (S235/236) phosphorylation, antibody array” value [1] was “phosphorylates mTORC1 pathway target S6 Ribosomal Protein (S^235/236)”. The “p-AKT(Ser473), Phosflow cytometry” value ([2]; 1 μg/ml TIMP3, 15 mins) was “activates p-AKT(Ser^473)”, the “p-AKT(Ser473), western blot” value ([2]; 1 μg/ml TIMP3, 15 mins) was “activates p-AKT(Ser^473)” and the “phospho-AKT(Ser473), fluorescent antibody signaling array” value ([2]; 1 μg/ml TIMP3, 15 mins) was “activates phospho-AKT(Ser^473)”. The “p-AKT(Ser473), Phosflow cytometry” value ([2]; 1 μg/ml TIMP3, 45 minutes) was “activates p-AKT(Ser^473)”.
